Test results from patent publication US20180064827.

What was measured:
Assay in all cases: cell_activity
ZFN 64552 (synthetic) = conditions: pair with 66083 or 66084, 5 ug/mL
ZFN 66075 (synthetic) = conditions: pair with 64555, 5 ug/mL
ZFN 66079 (synthetic) = conditions: pair with 64555, 5 ug/mL
ZFN 60289 (synthetic) = conditions: pair with 60287, K562
ZFN 60137 (synthetic) = conditions: pair with 60334, K562
ZFN 60043 (synthetic) = conditions: pair with 60045, K562
ZFN 60392 (synthetic) = conditions: pair with 65022, Hepa1-6
ZFN 64989 (synthetic) = conditions: pair with 65021, Hepa1-6
ZFN 64992 (synthetic) = conditions: pair with 65021, Hepa1-6
ZFN 60413 (synthetic) = conditions: pair with 64944, Hepa1-6
ZFN 64951 (synthetic) = conditions: pair with 64946, Hepa1-6
ZFN 64952 (synthetic) = conditions: pair with 64944, Hepa1-6
ZFN 60416 (synthetic) = conditions: pair with 64866, Hepa1-6
ZFN 64848 (synthetic) = conditions: pair with 64866, Hepa1-6
ZFN 64859 (synthetic) = conditions: pair with 64869, Hepa1-6
ZFN 60133 (synthetic) = conditions: pair with 60134, K562
ZFN 60254 (synthetic) = conditions: pair with 60259, K562; N7a version 60256 gave 74.32
ZFN 60502 (synthetic) = conditions: pair with 64066, HepG2, 40 ug/mL
ZFN 64080 (synthetic) = conditions: pair with 60501, HepG2, 40 ug/mL
ZFN 67458 (synthetic) = conditions: pair with 60501, HepG2, 40 ug/mL
ZFN 58780 (synthetic) = conditions: pair with 65094, Hepa1-6
ZFN 65085 (synthetic) = conditions: pair with 65098, Hepa1-6
ZFN 65086 (synthetic) = conditions: pair with 65094, Hepa1-6
ZFN 60417 (synthetic) = conditions: pair with 64859, Hepa1-6
ZFN 64866 (synthetic) = conditions: pair with 64859, Hepa1-6
ZFN 64869 (synthetic) = conditions: pair with 64859, Hepa1-6
ZFN 60750 (synthetic) = conditions: pair with 67495, HepG2, 40 ug/mL
ZFN 25277 (synthetic) = conditions: pair with 25264, K562, 200 ng
ZFN 60501 (synthetic) = conditions: pair with 67458, HepG2, 40 ug/mL
ZFN 64066 (synthetic) = conditions: pair with 60502, HepG2, 40 ug/mL
ZFN 67451 (synthetic) = conditions: pair with 60502, HepG2, 40 ug/mL
ZFN 60259 (synthetic) = conditions: pair with 60254, K562
ZFN 60412 (synthetic) = conditions: pair with 64951, Hepa1-6
ZFN 64944 (synthetic) = conditions: pair with 64952, Hepa1-6
ZFN 64946 (synthetic) = conditions: pair with 64951, Hepa1-6
ZFN 64947 (synthetic) = conditions: pair with 64952, Hepa1-6
ZFN 60423 (synthetic) = conditions: pair with 64793, Hepa1-6
ZFN 64842 (synthetic) = conditions: pair with 64793, Hepa1-6
ZFN 64844 (synthetic) = conditions: pair with 64793, Hepa1-6

ACTTGCTGCATATGTGGCTAAAGCAATA (double strand) [M. mulatta HAO1 left]
activity (ZFN 64552 (synthetic)): 80.6 % indel | activity (ZFN 66075 (synthetic)): 86.9 % indel | activity (ZFN 66079 (synthetic)): 84.2 % indel

AGAGAAGTGGATCAGTCTCTGCCTCAAC (double strand) [human PCSK9 60289 site]
activity (ZFN 60289 (synthetic)): 73.1 % indel

AGATGGGGGTCTTACCGGGGGGCTGGTA (double strand) [human PCSK9 60137 site]
activity (ZFN 60137 (synthetic)): 67.9 % indel

AGGATCCGTGGAGGTTGCCTGGCACCTA (double strand) [human PCSK9 60043 site]
activity (ZFN 60043 (synthetic)): 65.4 % indel

AGGATGGAGATTATGAAGAGCTGATGCT (double strand) [mouse PCSK9 site G left]
activity (ZFN 60392 (synthetic)): 69.2 % indel | activity (ZFN 64989 (synthetic)): 83.3 % indel | activity (ZFN 64992 (synthetic)): 79.8 % indel

CACATGGGGCAACTTCAGGGCCTACAGA (double strand) [mouse PCSK9 site E right]
activity (ZFN 60413 (synthetic)): 41.4 % indel | activity (ZFN 64951 (synthetic)): 51.3 % indel | activity (ZFN 64952 (synthetic)): 49.1 % indel

CAGAGCATCCCATGGAACCTGGAGCGAA (double strand) [mouse PCSK9 site B left]
activity (ZFN 60416 (synthetic)): 35.7 % indel | activity (ZFN 64848 (synthetic)): 73.6 % indel | activity (ZFN 64859 (synthetic)): 82.4 % indel

CCGCCCGGTACCGTGGAGGGGTAATCCG (double strand) [human PCSK9 60133 site]
activity (ZFN 60133 (synthetic)): 72.6 % indel

CGCTGCCGGCAACTTCCGGGACGATGCC (double strand) [human PCSK9 60254 site]
activity (ZFN 60254 (synthetic)): 75.7 % indel

CTGCCTTGCTGGACTGGTATTTGTGTCT (double strand) [human TTR 60502 site]
activity (ZFN 60502 (synthetic)): 37.3 % indel | activity (ZFN 64080 (synthetic)): 47 % indel | activity (ZFN 67458 (synthetic)): 47.6 % indel

CTGGAGGCTGCCAGGAACCTACATTGTG (double strand) [mouse PCSK9 site J left]
activity (ZFN 58780 (synthetic)): 69.6 % indel | activity (ZFN 65085 (synthetic)): 73.5 % indel | activity (ZFN 65086 (synthetic)): 77.8 % indel

CTGGTGCCATGCTGGGATAATTCGCTCC (double strand) [mouse PCSK9 site B right]
activity (ZFN 60417 (synthetic)): 53 % indel | activity (ZFN 64866 (synthetic)): 79 % indel | activity (ZFN 64869 (synthetic)): 82.4 % indel

CTTACTGGAAGGCACTTGGCATCTCCCC (double strand) [human TTR 60750 site]
activity (ZFN 60750 (synthetic)): 61.8 % indel

GAAAGGGACTGAAGCTGCTGGGGCCATG (double strand) [SERPINA1 25277 site]
activity (ZFN 25277 (synthetic)): 40.9 % indel

GAGCAGACGATGAGAAGCCATCCTGCCA (double strand) [human TTR 60501 site]
activity (ZFN 60501 (synthetic)): 47.6 % indel | activity (ZFN 64066 (synthetic)): 37.3 % indel | activity (ZFN 67451 (synthetic)): 36.6 % indel

GAGGCTGGGGAGTAGAGGCAGGCATCGT (double strand) [human PCSK9 60259 site]
activity (ZFN 60259 (synthetic)): 75.7 % indel

GCTAAGTGCATGGCTGTCTGGTTCTGTA (double strand) [mouse PCSK9 site E left]
activity (ZFN 60412 (synthetic)): 28.6 % indel | activity (ZFN 64944 (synthetic)): 49.1 % indel | activity (ZFN 64946 (synthetic)): 51.3 % indel | activity (ZFN 64947 (synthetic)): 42 % indel

GGCACGCTGTTGAAGTCGGTGATGGTGA (double strand) [mouse PCSK9 site A right]
activity (ZFN 60423 (synthetic)): 35.8 % indel | activity (ZFN 64842 (synthetic)): 44.9 % indel | activity (ZFN 64844 (synthetic)): 42.9 % indel
